For 59 variants, abundance fitness results are on record in the Human Domainome abundance scans (Beltran et al. 2025).

B1: E3 ubiquitin-protein ligase Midline-1, residues 172 to 214; numbered along this chain, O15344 (parent)
chain: GLMCLEHEDEKVNMYCVTDDQLICALCKLVGRHRDHQVAALSE

± gives the uncertainty stated by the source.

In the data set the parent is B1. As to the kind of experiment: abundance fitness (aPCA) (normalised: wild type 0, dead -1); higher = more abundant; growth selection in yeast, the domain comes from the species named. The following applies: Homo sapiens.
For the variant GLMCLEHEDEKVNMYTVTDDQLICALCKLVGRHRDHQVAALSE [C16T], the abundance fitness was -0.351 ± 0.1. The value for GLMCLEHEDEKVNMYQVTDDQLICALCKLVGRHRDHQVAALSE [C16Q] was -0.219 ± 0.076; that for GLMCLEHEDHKVNMYCVTDDQLICALCKLVGRHRDHQVAALSE [E10H] was 0.066 ± 0.16. Consider GLMCLEHEDRKVNMYCVTDDQLICALCKLVGRHRDHQVAALSE [E10R], for which the abundance fitness was -0.046 ± 0.049. As for GLMCLEHEDMKVNMYCVTDDQLICALCKLVGRHRDHQVAALSE [E10M], the figure is -0.029 ± 0.097; as for GLMCLEHEDEKVNMSCVTDDQLICALCKLVGRHRDHQVAALSE [Y15S], -0.023 ± 0.061; as for GLMCLEHEDEKVNMMCVTDDQLICALCKLVGRHRDHQVAALSE [Y15M], -0.094 ± 0.093. As for GLMCLEHEDEKVNMYCVTDDQLICALCKLVGRHRYHQVAALSE [D35Y], the figure is -0.33 ± 0.13; as for GLMCLEHEDEKVNMYCVTDDQLICALCKLVGRHRDHIVAALSE [Q37I], -0.508 ± 0.29; as for GLMCLEHEDEKVNMYCVTDDQLICALCKLVGRHRDHLVAALSE [Q37L], -0.338 ± 0.08. In the case of GLMCLEHEDEKVNMYCVTDDQLICALCKLVGRHRDHMVAALSE [Q37M], the abundance fitness is -0.269 ± 0.15. Turning to GLMCLEHEDEKVNMYCVTDDQLICALCKLVGRHRDHQVAALST [E43T], the abundance fitness was -0.221 ± 0.35. Consider GLMCLEHEDEKVNMYCVTDDQLICALCKLVGRHRDHQVAALSH [E43H], for which the abundance fitness was -0.197 ± 0.1. The value for GLMCLEHEDEKVNMYCVTDDQLICALCKLVGRHRDHQVAALSR [E43R] was -0.031 ± 0.058; that for GLMCLEHEDEKVNMYCVTDDQLICALCKLVGRHRDVQVAALSE [H36V] was -0.588 ± 0.073. Regarding GLMCLEHEDEKVNMYCVTDDQLICALCKLVGRHRDKQVAALSE [H36K], the abundance fitness stood at 0.034 ± 0.47. In the case of GLMCLECEDEKVNMYCVTDDQLICALCKLVGRHRDHQVAALSE [H7C], the abundance fitness is -0.466 ± 0.14. As for GLMCLEWEDEKVNMYCVTDDQLICALCKLVGRHRDHQVAALSE [H7W], the figure is -0.89 ± 0.13. Take GLMCLEHEDEKVNMYCVTDDQLICALCKLVGRHRDHQVYALSE [A39Y]: the abundance fitness is -0.393 ± 0.15. Take GLMCLEHEDEKVNMYCVTDDQLICALCKLVGRHRDHQVHALSE [A39H]: the abundance fitness is -0.024 ± 0.098. GLMCLEHEDEKVNMYCVTDDQLICALCKLVGRHRDHQVEALSE [A39E]: the abundance fitness is 0.016 ± 0.057. Consider GLMCLEHEDEKVNMYCVTDDQLICALCKLVGRHRDHQVSALSE [A39S], for which the abundance fitness worked out at 0.102 ± 0.066. With GLMCLEHEDEKVNMYCVTDDQLIVALCKLVGRHRDHQVAALSE [C24V], the abundance fitness was -0.971 ± 0.13. For the variant GLMCLEHEDEKVNMYCVTDDQLIPALCKLVGRHRDHQVAALSE [C24P], the abundance fitness is -0.977 ± 0.18. With GLMCLEHEDEKVNMYCVTDDQLIWALCKLVGRHRDHQVAALSE [C24W], the abundance fitness is -0.978 ± 0.12. Regarding GLMCLEHEDEKVNMYCVTDDQLISALCKLVGRHRDHQVAALSE [C24S], the abundance fitness was -1.01 ± 0.13. As for GLMCLEHEDEKVNMYCVTDDQLICALCTLVGRHRDHQVAALSE [K28T], the abundance fitness came out at 0.063 ± 0.06. As for GLMCLEHEDEKVNMYCVTDDQLICALCRLVGRHRDHQVAALSE [K28R], the figure is 0.119 ± 0.05; as for GLMCLEHEDEKVNMYCVTDDQLICALCLLVGRHRDHQVAALSE [K28L], -0.16 ± 0.054. As for GLMCLEHEDEKVNMYCVTDDQLICALCYLVGRHRDHQVAALSE [K28Y], the abundance fitness is -0.161 ± 0.082. The value for GLMCLEHEDEKVNMYCVTDDQLICALCKLVGRHKDHQVAALSE [R34K] was 0.376 ± 0.1; that for GLMCLEHEDEKVNMYCVTDDQLICALCKLVGRHADHQVAALSE [R34A] was 0.164 ± 0.062. The value for GLMCVEHEDEKVNMYCVTDDQLICALCKLVGRHRDHQVAALSE [L5V] was -0.165 ± 0.064. For the variant GLMCSEHEDEKVNMYCVTDDQLICALCKLVGRHRDHQVAALSE [L5S], the abundance fitness was -0.012 ± 0.073. The value for GLMCLEHEDEKVNSYCVTDDQLICALCKLVGRHRDHQVAALSE [M14S] was 0.267 ± 0.065.

Regarding GLMCLEHEDEKVNAYCVTDDQLICALCKLVGRHRDHQVAALSE [M14A], the abundance fitness was determined as 0.043 ± 0.048. As for GLMCLEHEDEKVNVYCVTDDQLICALCKLVGRHRDHQVAALSE [M14V], the abundance fitness is -0.386 ± 0.064. As for GLMCLEHEDEKVNKYCVTDDQLICALCKLVGRHRDHQVAALSE [M14K], the figure is 0.121 ± 0.21. Regarding GLMCLEHEDEKVNDYCVTDDQLICALCKLVGRHRDHQVAALSE [M14D], the abundance fitness was 0.09 ± 0.12. For GLMCLEHEDEKVNRYCVTDDQLICALCKLVGRHRDHQVAALSE [M14R], the abundance fitness was 0.033 ± 0.055. Consider GLMCLEHEDEKVNWYCVTDDQLICALCKLVGRHRDHQVAALSE [M14W], for which the abundance fitness is -0.055 ± 0.056. The value for GLMCLVHEDEKVNMYCVTDDQLICALCKLVGRHRDHQVAALSE [E6V] was -0.183 ± 0.059. Regarding GLMCLNHEDEKVNMYCVTDDQLICALCKLVGRHRDHQVAALSE [E6N], the abundance fitness was -0.226 ± 0.18.

As for GLMCLQHEDEKVNMYCVTDDQLICALCKLVGRHRDHQVAALSE [E6Q], the abundance fitness is -0.036 ± 0.09. As to GLMCLAHEDEKVNMYCVTDDQLICALCKLVGRHRDHQVAALSE [E6A], the abundance fitness was -0.085 ± 0.075. With GLMCLEHEFEKVNMYCVTDDQLICALCKLVGRHRDHQVAALSE [D9F], the abundance fitness turned out to be 0.173 ± 0.11. As for GLMCLEHEQEKVNMYCVTDDQLICALCKLVGRHRDHQVAALSE [D9Q], the figure is 0.116 ± 0.065. Turning to GLMCLEHEWEKVNMYCVTDDQLICALCKLVGRHRDHQVAALSE [D9W], the abundance fitness was -0.052 ± 0.055. The value for GLMCLEHEMEKVNMYCVTDDQLICALCKLVGRHRDHQVAALSE [D9M] was 0.246 ± 0.072. As for GLMCLEHEDEKVNMYCVTDDQLICALCKLVGRHRDHQVAALYE [S42Y], the abundance fitness was -0.34 ± 0.085. The value for GLMCLEHEDEKVNMYCVTDDQLICALCKLVGRHRDHQVAALGE [S42G] was 0.078 ± 0.057. As for GLMCLEHEDEKVNMYCVTDDQLICALCKQVGRHRDHQVAALSE [L29Q], the figure is -0.016 ± 0.091; as for GLMCLEHEDEKVNMYCVTDDQRICALCKLVGRHRDHQVAALSE [L22R], 0.311 ± 0.059. The value for GLMCLEHEDEKVNMYCVTDDQNICALCKLVGRHRDHQVAALSE [L22N] was 0.698 ± 0.26. As for GLMCLEHVDEKVNMYCVTDDQLICALCKLVGRHRDHQVAALSE [E8V], the abundance fitness is 0.072 ± 0.053. Turning to GLMCLEHQDEKVNMYCVTDDQLICALCKLVGRHRDHQVAALSE [E8Q], the abundance fitness worked out at 0.051 ± 0.074.

On to GLMCLEHWDEKVNMYCVTDDQLICALCKLVGRHRDHQVAALSE [E8W], for which the abundance fitness was -0.348 ± 0.076. The value for GLMCLEHRDEKVNMYCVTDDQLICALCKLVGRHRDHQVAALSE [E8R] was 0.116 ± 0.045; that for GLMCLEHYDEKVNMYCVTDDQLICALCKLVGRHRDHQVAALSE [E8Y] was -0.243 ± 0.1.
